Data reported in US20250282834A1 (University of California, published 2025).
Non-standard residues stand in square brackets, D forms with d. No end group written: not given here. *: point of attachment. Biotin = O=C1N[C@H]2[C@H](CS[C@H]2CCCCC(=O)*)N1; Orn = NCCC[C@H](N)C(=O)O; βAla = NCCC(=O)O

Legend:
[1] = target: T1, full-length Flag-CHD4 (chromodomain helicase DNA-binding protein 4) (UniProt Q14839 1-1912); test: peptide pull-down: 100 nM purified Flag-CHD4 with 1 µg N-biotinylated peptide, anti-Flag immunoblot
T1 construct: FLAG-tagged, made in recombinant baculovirus infected Sf9 cells and purified on Flag-agarose; also called purified CHD4; full-length CHD4
T1 sequence (Q14839 whole entry): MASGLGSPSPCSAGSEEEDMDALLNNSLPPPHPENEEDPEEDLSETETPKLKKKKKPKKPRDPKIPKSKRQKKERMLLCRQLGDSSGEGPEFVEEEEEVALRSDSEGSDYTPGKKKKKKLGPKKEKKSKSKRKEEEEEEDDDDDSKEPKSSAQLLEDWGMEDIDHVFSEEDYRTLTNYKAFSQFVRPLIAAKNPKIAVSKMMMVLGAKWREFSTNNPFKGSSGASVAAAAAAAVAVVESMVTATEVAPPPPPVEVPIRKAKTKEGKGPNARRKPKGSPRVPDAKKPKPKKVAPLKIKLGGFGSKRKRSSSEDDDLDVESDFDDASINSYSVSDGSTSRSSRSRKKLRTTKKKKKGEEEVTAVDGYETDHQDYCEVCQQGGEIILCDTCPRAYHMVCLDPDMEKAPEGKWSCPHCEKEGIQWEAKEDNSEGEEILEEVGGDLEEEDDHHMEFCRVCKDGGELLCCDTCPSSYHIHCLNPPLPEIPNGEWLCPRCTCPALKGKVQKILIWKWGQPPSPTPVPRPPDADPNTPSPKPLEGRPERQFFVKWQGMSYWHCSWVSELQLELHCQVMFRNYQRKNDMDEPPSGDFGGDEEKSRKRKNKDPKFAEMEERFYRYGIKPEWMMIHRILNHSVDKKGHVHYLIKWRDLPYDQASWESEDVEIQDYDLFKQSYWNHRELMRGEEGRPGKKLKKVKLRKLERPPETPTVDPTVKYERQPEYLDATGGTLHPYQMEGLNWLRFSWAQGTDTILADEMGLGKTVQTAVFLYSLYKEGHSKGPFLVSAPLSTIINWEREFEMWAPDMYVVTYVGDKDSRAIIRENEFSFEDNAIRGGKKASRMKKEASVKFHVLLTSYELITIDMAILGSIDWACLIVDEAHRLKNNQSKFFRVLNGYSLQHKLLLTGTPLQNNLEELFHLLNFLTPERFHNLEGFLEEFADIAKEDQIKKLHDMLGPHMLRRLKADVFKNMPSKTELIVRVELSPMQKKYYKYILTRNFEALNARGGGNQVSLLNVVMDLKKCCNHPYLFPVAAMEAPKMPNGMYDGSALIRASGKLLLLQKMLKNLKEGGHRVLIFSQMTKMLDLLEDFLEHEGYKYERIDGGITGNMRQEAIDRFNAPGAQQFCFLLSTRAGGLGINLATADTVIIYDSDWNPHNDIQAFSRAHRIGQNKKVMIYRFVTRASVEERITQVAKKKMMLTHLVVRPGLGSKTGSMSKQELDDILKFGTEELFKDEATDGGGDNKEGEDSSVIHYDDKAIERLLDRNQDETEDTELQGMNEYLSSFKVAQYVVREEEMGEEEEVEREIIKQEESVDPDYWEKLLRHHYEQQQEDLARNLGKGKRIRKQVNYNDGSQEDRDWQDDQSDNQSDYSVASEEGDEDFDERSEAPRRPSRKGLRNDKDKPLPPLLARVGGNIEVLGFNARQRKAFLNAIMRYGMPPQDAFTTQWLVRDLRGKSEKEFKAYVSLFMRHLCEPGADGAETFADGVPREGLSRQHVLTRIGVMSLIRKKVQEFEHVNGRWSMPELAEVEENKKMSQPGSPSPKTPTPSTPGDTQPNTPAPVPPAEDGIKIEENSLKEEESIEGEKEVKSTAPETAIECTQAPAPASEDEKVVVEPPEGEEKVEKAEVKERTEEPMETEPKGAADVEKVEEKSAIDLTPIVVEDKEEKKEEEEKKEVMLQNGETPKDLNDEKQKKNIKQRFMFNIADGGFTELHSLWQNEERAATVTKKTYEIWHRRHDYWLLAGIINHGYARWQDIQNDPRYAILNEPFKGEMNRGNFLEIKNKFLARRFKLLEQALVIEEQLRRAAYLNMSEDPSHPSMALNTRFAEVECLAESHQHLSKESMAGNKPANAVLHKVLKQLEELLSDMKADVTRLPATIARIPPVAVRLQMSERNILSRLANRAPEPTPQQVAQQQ

[2] = target: T2, CHD4 (endogenous, in PEL cells BC3 / BCBL-1) (UniProt Q14839 1-1912); test: streptavidin pull-down from BC3 cells incubated with 10 µM biotinylated peptide, anti-CHD4 immunoblot
T2 construct: Cellular protein in treated cells and their lysates
T2 sequence (Q14839 whole entry): as above

[3] = target: T1, full-length Flag-CHD4 (chromodomain …); test: BLI, biotinylated peptide on streptavidin tips, full-length Flag-CHD4 at 0-50 nM in solution
[4] = target: T1, full-length Flag-CHD4 (chromodomain …); test: ELISA, plate coated with 1 µM biotinylated VGN73, Flag-CHD4 protein titrated, OD 450 nm
1531-1912 = target: T3, 1531-1912; test: ELISA, plate coated with 1 µM biotinylated VGN73, Flag-CHD4 deletion protein titrated, OD 450 nm
T3 construct: Member of the group m7; The map draws it with CHDCT2 only, without PHD; also called Flag-CHD4 deletion protein 1531-1912

1250-1912 = target: T4, 1250-1912; test: as above
T4 construct: Member of the group m7; The map draws it with the two DUF domains and CHDCT2, without PHD; also called Flag-CHD4 deletion protein 1250-1912

685-1245 = target: T5, 685-1245; test: as above
T5 construct: Member of the group m7; The map draws it with the ATPase and C-terminal helicase boxes only, without PHD; also called Flag-CHD4 deletion protein 685-1245

B1: #8 (peptide)
peptide: Biotin-QPPVPYRQIDDCPAKARPQHIFYR
notes: also called N-Biotin LANA peptide 8; KSHV LANA 977-1000
binding result [1]: no binding (tested: 1 µg peptide with 100 nM CHD4)

B2: modified TAT peptide (peptide)
peptide: RKKRRXRRRA
modifications: d-Arg at position 1; ornithine (ORN) at position 6; beta-alanine at position 10; N-terminal biotin in BLI
notes: also called TAT alone; biotinylated TAT peptide
binding result [2]: no binding (tested: 10 µM)
binding result [3]: no binding (tested: 50 nM)

B3: #5 (peptide)
peptide: Biotin-IASSPPGDNTPDDDPQPGPSREYR
notes: also called N-Biotin LANA peptide 5; KSHV LANA 922-945
binding result [1]: no binding (tested: 1 µg peptide with 100 nM CHD4)

B4: #1 (peptide)
peptide: Biotin-EQELEEVEEQEEQELEEVEEQEQ
notes: also called N-Biotin LANA peptide 1; KSHV LANA 872-894 as printed
binding result [1]: no binding (tested: 1 µg peptide with 100 nM CHD4)

B5: #4 (peptide)
peptide: Biotin-EDEMEVDYPVVSTHEQIASSPPG
notes: also called N-Biotin LANA peptide 4; KSHV LANA 906-928
binding result [1]: no binding (tested: 1 µg peptide with 100 nM CHD4)

B6: #3 (peptide)
peptide: Biotin-ETVEEPIILHGSSSEDEMEVDYP
notes: also called N-Biotin LANA peptide 3; KSHV LANA 892-914
binding result [1]: no binding (tested: 1 µg peptide with 100 nM CHD4)

[dR]KKRR[Orn]RRR[βAla]AKHAVISAGNDPYGLKK (also: N-terminal biotin only in BLI form) [VGN73 mutant peptide (TAT-VGN73 mutant fusion peptide)]
binding result [2]: no binding (tested: 10 µM)
binding result [3]: no binding (tested: 50 nM)

B7: #2 (peptide)
peptide: Biotin-EEVEEQEQQGVEQQEQETVEE
notes: also called N-Biotin LANA peptide 2; KSHV LANA 876-896 as printed
binding result [1]: no binding (tested: 1 µg peptide with 100 nM CHD4)

B8: VGN73 (TAT-VGN73 fusion peptide) (peptide)
peptide: [dR]KKRR[Orn]RRR[βAla]WKHAVIFWGNDPYGLKK
modifications: also: N-terminal biotin only in ELISA, BLI and pull-down forms
notes: Used without biotin in cell treatment assays; also called LANA peptide; cell-penetrating LANA peptide
EC50 (read off the curve) [4]: ~10 nM
binding result (1531-1912): no binding (tested: 100 nM)
binding result (1250-1912): no binding (tested: 100 nM)
binding result (685-1245): no binding (tested: 100 nM)
